Laboratory results: patent US20150259430A1 (MAB DISCOVERY, published 2015)
Where two headings read alike, the source gives them in different places. Blank lines part the entries; values can stand above or below the binder they belong to.

What was measured:
[1] = biological target: T1, recombinant Fc chimeric conjugate of human HER2 (human, UniProt P04626 23-652); test: ELISA, coated antigen
T1 construct: extracellular domain; Coated on the ELISA plate
Method: (§1) Microtiter plates were coated with a) c-Met, IGF-1R, EGFR, HER2, and/or HER3 protein or b) EGFR, HER2, and/or HER3 (recombinant Fc chimeric conjugates of human c-Met, IGF-1R, EGFR, HER2, HER3 or IL12 Rβ1). After a blocking process, specific antibodies from B-cell supernatants bind to the targets and are then detected by a POD-labeled anti-rabbit IgG antibody. The IL12R binding was used as a counter-screen.
(§2) 12.5 μL 0.5 μg/mL protein in PBS was transferred to a microtiter plate incubated and washed 3× with Wash Buffer. 90 μL Block Buffer was added to each well, incubated and washed. 12.5 μL Standard Antibody (Anti-EGF-Receptor; HER2 Rabbit anti-Human Monoclonal (extracellular domain) (SP3) Antibody; HER3 (N-terminal) antibody; start concentration 2 μg/ml; IL-12Rbeta1 antibody start concentration 500 ng/ml) in 1:2 dilutions or sample diluted in ELISA buffer was added, incubated and washed. 12.5 μl 1:5000 POD-Antibody (Anti-rabbit IgG, peroxidase-linked species-specific Fab2 fragment (from donkey) (ECL); assay dilution: 1:5000) in Elisa Buffer was added, incubated and washed. 15 μl TMB was added and 15 μl HCl was added after sufficient development. Absorbance (Optical Density O.D.) was read at 450 nm/620 nm.

[2] = biological target: T2, recombinant Fc chimeric conjugate of human EGFR (human, UniProt P00533 25-645); test: ELISA, coated antigen
T2 construct: extracellular domain; Coated on the ELISA plate; also called HER1; Her1
Method: as §1, §2

[3] = biological target: T1, recombinant Fc chimeric conjugate of …; test: ELISA, coated antigen; remark: listed apart in the source
Method: as §1, §2

[4] = biological target: T3, recombinant Fc chimeric conjugate of human IGF-1R (human, UniProt P08069 31-935); test: ELISA, coated antigen
T3 construct: extracellular domain; Coated on the ELISA plate
Method: as §1, §2

[5] = biological target: T2, recombinant Fc chimeric conjugate of …; test: ELISA, coated antigen; remark: listed apart in the source
Method: as §1, §2

[6] = biological target: T1, recombinant Fc chimeric conjugate of …; test: ELISA, coated antigen; supernatant IgG 1500.0 ng/ml
Method: as §1, §2

[7] = biological target: T2, recombinant Fc chimeric conjugate of …; test: as above
Method: as §1, §2

[8] = biological target: T4, recombinant Fc chimeric conjugate of human HER3 (human, UniProt P21860 20-643); test: ELISA, coated antigen
T4 construct: extracellular domain; Coated on the ELISA plate
T4 sequence (P21860 20-643, change not shown): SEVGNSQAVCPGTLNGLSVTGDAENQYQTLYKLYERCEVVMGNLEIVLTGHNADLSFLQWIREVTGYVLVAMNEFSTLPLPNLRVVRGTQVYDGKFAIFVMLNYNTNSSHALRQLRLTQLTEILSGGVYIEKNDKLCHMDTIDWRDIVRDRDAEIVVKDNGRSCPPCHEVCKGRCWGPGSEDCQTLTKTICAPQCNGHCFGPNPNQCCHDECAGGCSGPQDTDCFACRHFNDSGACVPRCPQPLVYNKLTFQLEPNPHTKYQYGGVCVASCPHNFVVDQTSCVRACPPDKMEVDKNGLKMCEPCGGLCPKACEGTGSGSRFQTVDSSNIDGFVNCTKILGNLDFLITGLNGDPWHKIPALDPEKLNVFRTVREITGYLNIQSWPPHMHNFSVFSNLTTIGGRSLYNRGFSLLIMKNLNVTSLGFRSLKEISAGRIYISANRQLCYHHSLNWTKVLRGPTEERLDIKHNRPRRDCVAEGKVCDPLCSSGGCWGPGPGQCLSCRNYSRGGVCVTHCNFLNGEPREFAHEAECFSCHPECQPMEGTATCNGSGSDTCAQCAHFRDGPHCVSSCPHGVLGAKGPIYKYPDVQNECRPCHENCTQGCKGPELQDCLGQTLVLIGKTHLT
Method: as §1, §2

T3 sequence (P08069 31-935, change not shown): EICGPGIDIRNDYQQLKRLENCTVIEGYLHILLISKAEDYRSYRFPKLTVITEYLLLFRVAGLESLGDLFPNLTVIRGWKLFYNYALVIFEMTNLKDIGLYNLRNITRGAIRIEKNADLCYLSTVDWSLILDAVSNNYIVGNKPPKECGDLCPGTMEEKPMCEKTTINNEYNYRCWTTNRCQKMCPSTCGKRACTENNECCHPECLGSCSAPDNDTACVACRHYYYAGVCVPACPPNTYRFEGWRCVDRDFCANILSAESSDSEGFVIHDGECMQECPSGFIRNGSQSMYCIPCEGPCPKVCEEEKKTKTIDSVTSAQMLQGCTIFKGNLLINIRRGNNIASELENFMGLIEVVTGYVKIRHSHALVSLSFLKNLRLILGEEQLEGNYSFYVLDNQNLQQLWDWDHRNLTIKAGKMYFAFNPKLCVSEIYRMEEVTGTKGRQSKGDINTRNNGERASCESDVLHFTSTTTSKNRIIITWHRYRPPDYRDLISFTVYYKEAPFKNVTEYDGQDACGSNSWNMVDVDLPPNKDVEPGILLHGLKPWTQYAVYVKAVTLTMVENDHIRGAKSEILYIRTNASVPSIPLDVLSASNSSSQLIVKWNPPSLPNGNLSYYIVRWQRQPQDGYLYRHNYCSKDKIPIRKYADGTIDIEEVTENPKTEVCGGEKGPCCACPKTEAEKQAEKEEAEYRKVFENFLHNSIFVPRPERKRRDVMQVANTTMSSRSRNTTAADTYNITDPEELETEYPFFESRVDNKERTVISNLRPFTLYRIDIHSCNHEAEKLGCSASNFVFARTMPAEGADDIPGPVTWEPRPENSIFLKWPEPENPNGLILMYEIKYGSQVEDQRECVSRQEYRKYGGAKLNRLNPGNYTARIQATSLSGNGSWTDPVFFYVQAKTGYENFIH

B2: Antibody 22 (antibody, V domains shown)
VH: QSVEESGGRLVTPGTPLTLTCTVSGFSLSNYGMSWVRQAPGKGLEWIGIITSRSTYYASWAKGRFTISKTSSTTVDLKMTSLTTEDTATYFCGVNNLWGQGTLVTVSS
VL: DPVLTQTPSSVSAAVGGTVTISCQSSQTINNNDLSWFQQKPGQPPKRLIYEASTLTSGVPSRFKGSGSGTQFTLTISDVQCDDAATYYCLGGYYSYGWYFGFGGGTEVVVK
notes: rabbit IgG in B-cell supernatant
- binding result [1]: no binding (tested: OD 0.1 or lower)

B3: Antibody 23 (antibody, V domains shown)
VH: QSLEESGGRLVKPGTPLTLTCTASGFSLSSYYMIWVRQAPGKGLEYIGIISSSGSTYYASWAKGRFTISKTSSTTVDLKMTSLTTEDTATYFCGVNNLWGQGTLVTVSS
VL: DPVLTQTPSSVSAAVGGTVTISCQSSQSINNNDLSWFQKKPGQPPKRLIYEASTLTSGVPSRFKGSGSGTQFTLTISDVQCDDAATYYCLGGYYSYGWYFGFGGGTEVVVK
notes: as for B2
- binding result [1]: no binding (tested: OD 0.1 or lower)

B4: Antibody 87 (antibody, V domains shown)
VH: QSVEESGGRLVTPGTPLTVTCTVSGFSLSSYVMSWVRQAPGKGLEWIGIIASSGHTYYATWAKGRFTISKTSTTVDLKITSPTTEDTATYFCARYGSDSGWGYYFTLWGPGTLVTVSS
VL: AQVLTQTPSSVSEPVGGTVTINCQASENIYSYLSWYQQKRGQPPKLLIYGASTLASGVPSRFKGSGSGTEYTLTISDLECDDAATYYCQSGYYTNSGDLAFGGGTEVVVK
notes: as for B2
- binding result [2]: no binding (tested: OD 0.1 or lower)

B5: Antibody 69 (antibody, V domains shown)
VH: QSVEESGGRLVTPGTLLTLTCTVSGFSLTTYAVSWVRQAPGKGLEYMGYISATGSTYYASWAKGRFTISRTSTTVDLKITSPTIEDTATYFCARIDAATSYSAFDPWGPGTLVTVSS
VL: AQVLTQTPSSVSAAVGGTVTINCQSSESVYKNNYLAWYQQKPGQPPRLLIYLASTLASGVPSRFSGSGSGTQFTLTISGVQCDDAATYYCEATYVGVDWYWAFGGGTEVVVK
notes: as for B2
- binding result [1]: no binding (tested: OD 0.1 or lower)

B6: Antibody D08 (antibody, V domains shown)
VH: QSLEESGGRLVTPGTPLTLTCTVSGFSLGTYWMSWVRQAPGRGLDWIGFIGSSGNGNYASWAKGRFTISRASSTTVDLKMTSLTTEDTATYFCARVKYFYYFDLWGQGTLVTVSS
VL: AQVLTQTTSPVSAAVGGTVTINCQASESVYGKKYLSWYQQKPGQPPKQLIYEASKLASGVPSRFEGSGSGTQFTLTISGVQCDDAATYYCQGEFSCSSADCTAFGGGTEVVVK
notes: as for B2
- binding result [3]: no binding (tested: OD 0.1 or lower)
- binding result [4]: no binding (tested: OD 0.1 or lower)

B8: Antibody B02 (antibody, V domains shown)
VH: QSVEESGGRLVTPGTPLTLTCTVSGFSLSSYDMIWVRQAPGKGLEYIGIINTGGSAHYARWANGRFTISKTSTKVDLKITSPTIEDTATYFCARRDFGVSSKLWGQGTLVTVSS
VL: DIVMTQTPASVSAAVGGTVTINCQASEDIGNWLAWYQQKPGQRPKLLIYAASDLASGVPSRFKGSGSGTDFTLTISGLECADAATYYCQGGFFGSGFVYAFGGGTEVVVK
notes: as for B2
- binding result [5]: no binding (tested: OD 0.1 or lower)

B11: Antibody 77 (antibody, V domains shown)
VH: QSVEESGGRLVTPGTPLTLTCTISGFSLNNYWMSWVRQAPGKGLEWIGIISSSDTTWYASWAKGRFTISRTSTTVDLKMTSLTTEDTATYFCARDRGDVGYSDLDLWGPGTLVTVSS
VL: AYDMTQTPASVEVAVGGTVTIKCQASQSISSYLSWYQQKPGQPPKLLIYKASTLASGVSSRFSGSGSGTEFTLTISGVQCDDAATYYCQQGYSESNLDNAFGGGTEVVVK
notes: as for B2
- Optical density (OD) [6]: 2.5 OD
- Optical density (OD) [7]: 1.5 OD
- binding result [8]: no binding (tested: OD 0.1 or lower)

B14: Antibody 47 (antibody, V domains shown)
VH: QSVEESGGRLVTPGTPLTLTCTVSGFSLSSYAMNWVRQAPGKGLEWIGIIDSSGITYYATWAKGRFTISKTSTTVDLKMTSLTTEDTATYFCARGVTLWGQGTLVTVSS
VL: AQVLTQTASPVSAAVGSTVTINCQASQSVYNNNRLSWFQQKPGQPPKLLISGASTLASGVSSRFSGSGSGTQFTLTISDVQCDDAATYYCLGSYDCSSADCGAFGGGTEVVVK
notes: as for B2
- binding result [2]: no binding (tested: OD 0.1 or lower)

B15: Antibody G04 (antibody, V domains shown)
VH: QSLEESGGDLVKPGASLTLTCKASGFTISSSYYMCWVRQAPGKGLEWVACSYDGDGSTYYANWAKGRFTTSKTSSTTVTLQMTSLTAADTATYFCARGSYVSRSYYDKWDLWGQGTLVTVSS
VL: EVVMTQTPASVSEPVGGTVTIKCQASQYISSYLSWYQQKPGQPPKLLIYAASNLASGVPSRFKGSGSGTEFTLTISGVQCDDAATYYCQNNYYISGYGTAFGGGTEVVVK
notes: as for B2
- binding result [5]: no binding (tested: OD 0.1 or lower)

B16: Antibody 75 (antibody, V domains shown)
VH: QSVEESGGRLVTPGTPLTLTCTVSGFSLSRNAMSWVRQAPGKGLEWIGIINIYGTTWYASWAKGRFTISKTSSTTVTLKITSPTTEDTATYFCARDYGGDSATRLNLWGQGTLVTVSS
VL: DVVMTQTPASVEAAVGGTVTIKCQASQSIGGYLSWYQQKPGQPPKLLIYDASNLEIGVPSRFKGSGSGTEYTLTISDLECADAVTYYCQCTYGYGISSSYGNAFGGGTEVVVK
notes: as for B2
- binding result [1]: no binding (tested: OD 0.1 or lower)

The remaining lines, values ahead:

- binding result [1]: no binding (tested: OD 0.1 or lower)
B1: Antibody 11 (antibody, V domains shown)
VH: QSVEESGGRLVTPGTPLTLTCTVSGFSLRSYAMSWVRQAPGKGLEWVGIISTSGDTYYASWAKGRFTISKTSTTVDLKITSPTTEDTATYFCARYSYDDYGDYVRVGMDLWGPGTLVTVSS
VL: AAVLTQTPSPVSAAVGGTVSISCQSSKSVYYNNWLSWFQQKPGQRPKLLIYGASTLASGVPSRFKGSGSETQFTLTISDVQCDDAATYYCAGGYTSSSDTVSFGGGTEVVVK
notes: as for B2

- binding result [1]: no binding (tested: OD 0.1 or lower)
B7: Antibody 64 (antibody, V domains shown)
VH: QEQLKESGGGLVTPGTPLTLTCTASGFTISSYDMGWVRQAPGKGLEWIGYIWSGGSTYYANWAKGRFTISKTSTTVDLKMTSLTTEDTATYFCARVEFYSYVYVLWGPGTLVTVSS
VL: AFELTQTPSSVEAAVGGTVTIKCQASQSISGCLAWYQQKPGQPPKLLIYLASTLASGVSSRFRGSGSGTEYTLTISGVECDDAATYYCQQHYSSNNVDNAFGGGTEVVVK
notes: as for B2

- binding result [5]: no binding (tested: OD 0.1 or lower)
B9: Antibody A05 (antibody, V domains shown)
VH: QSLEESGGRLVTPGGSLTLTCTVSGIDLSSYAVAWVRQAPGKGLQYIGFFDKSGNVYYASWAKGRFTISRTSSTTVDLKMTSLTTEDTATYFCGRGSGGSDLWGQGTLVTVSS
VL: DVVMTQTPASVEAAVGGTVTIKCQASQSISGYLAWFQQKPGQPPKLLIYGASTLASGVPSRFKGSGSGTEFTLTISDLECADAATYYCQSYYTTSATSYGNAFGGGTEVVVK
notes: as for B2

- binding result [4]: no binding (tested: OD 0.1 or lower)
B10: Antibody D02 (antibody, V domains shown)
VH: QSLEESGGRLVTPGTPLTLTCTASRFSLSSYGVNWVRQAPGKGLQWIGYSHTDGSAYYTNWAKGRFTISRTSTTVDLKITSPTTADTATYFCWRGGLWGQGTLVTVSS
VL: AQVLTQTPSSVSAAVGGTVTINCQASQSVYKNNYLSWYQQKPGQPPKRLIYTASTLASGVPSRFKGSGSGTEFTLTISDVQCDDAATYYCVGGYDCSSADCNAFGGGTEVVVK
notes: as for B2

- binding result [1]: no binding (tested: OD 0.1 or lower)
B12: Antibody 62 (antibody, V domains shown)
VH: QSVEESGGRLVTPGTPLTLTCTVSGFSLSTNDIGWVRQAPGKGLEWIGYIWSGVKTYYVGWAKGRFTISKTSSTTVDLKMTSLTTEDTATYFCARVNSFSYVYSLWGPGTLVTVSS
VL: AYDMTQTPGSVEVAVGGTVTIKCQASEDIHSSLAWYQQKPGQPPKLLIYLASTLESGVPSRFKGSGSGTEYTLTISGVECADAATYYCQQHHSTSGVDNAFGGGTEVVVK
notes: as for B2

- Optical density (OD) [6]: 2.7 OD
- binding result [8]: no binding (tested: OD 0.1 or lower)
B13: Antibody 68 (antibody, V domains shown)
VH: QSVEESGGRLVTPGTPLTLTCTVSGFSLSTYSMSWVRQAPGKGLEWIGTIAISGTTYYASWAKGRFTISKSSTTVDLKISSPTTEDTATYFCARYVSDLIGTNLWGPGTLVTVSS
VL: DVVMTQTPASVSEPVGGTVTIKCQASQSIGSNLAWHQQKPGQPPKLLIYAASNLASGVSSRFKGSRSGTEYTLTISAVQCDDAATYYCQYTYYGSSVVIGTFGGGTEVVVK
notes: as for B2

- binding result [1]: no binding (tested: OD 0.1 or lower)
B17: Antibody 71 (antibody, V domains shown)
VH: QSVEESGGRLVTPGTPLTLTCTVSGFSLSRNAMSWVRQAPGKGLEWIGIINIYGTTWHAGWAKGRFTISKTSSTTVTLKITSPTTEDTATYFCARDYGGDSATRLNLWGQGTLVTVSS
VL: DVVMTQTPASVEAAVGGTVTIKCQASQSIGGYLSWYQQKPGQPPKLLIYDASNLEIGVPSRFKGSGSGTEYTLTISDLECADAVTYYCQCTYGYGISSSYGNAFGGGTEVVVK
notes: as for B2
